Where two headings read alike, the source gives them in different places.
Legend:
[1] = target: human vasopressin receptor 2 (3HA-hV2R) (human) (UniProt P30518)
[2] = target: human D2 dopamine receptor (3HA-hD2R) (human) (UniProt P14416)
[3] = target: human cannabinoid receptor 1 (pplss-3HA-hCB1) (human) (UniProt P21554)
[4] = target: human cannabinoid receptor 2 (3HA-hCB2) (human) (UniProt P34972)
[5] = target: human cannabinoid receptor 1 (pplss-3HA-hCB1) (human) (UniProt P21554); remark: listed apart in the source
[6] = target: human cannabinoid receptor 2 (3HA-hCB2) (human) (UniProt P34972); remark: listed apart in the source
[7] = target: human vasopressin receptor 2 (3HA-hV2R) (human) (UniProt P30518); remark: listed apart in the source
[8] = target: human D2 dopamine receptor (3HA-hD2R) (human) (UniProt P14416); remark: listed apart in the source
[9] = target: human vasopressin receptor 2 (3HA-hV2R) (human) (UniProt P30518); remark: listed apart in the source
[10] = target: human D2 dopamine receptor (3HA-hD2R) (human) (UniProt P14416); remark: listed apart in the source
[11] = target: human cannabinoid receptor 1 (pplss-3HA-hCB1) (human) (UniProt P21554); remark: listed apart in the source
[12] = target: human cannabinoid receptor 2 (3HA-hCB2) (human) (UniProt P34972); remark: listed apart in the source

bovine β-arrestin-2 (Rluc8-bβ-arrestin-2-Sp1), sequence (P32120 whole entry): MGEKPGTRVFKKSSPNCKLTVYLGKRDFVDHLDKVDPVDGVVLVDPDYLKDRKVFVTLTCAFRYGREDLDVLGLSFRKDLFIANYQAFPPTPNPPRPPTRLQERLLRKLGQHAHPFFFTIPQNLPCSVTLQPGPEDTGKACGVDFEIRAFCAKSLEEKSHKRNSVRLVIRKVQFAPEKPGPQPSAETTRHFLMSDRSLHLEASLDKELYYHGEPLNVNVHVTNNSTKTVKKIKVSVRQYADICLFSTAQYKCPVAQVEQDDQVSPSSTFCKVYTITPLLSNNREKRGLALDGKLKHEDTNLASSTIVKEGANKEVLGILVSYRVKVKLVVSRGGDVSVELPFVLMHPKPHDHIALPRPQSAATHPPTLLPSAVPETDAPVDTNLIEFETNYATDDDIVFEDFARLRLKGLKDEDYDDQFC
bovine β-arrestin-1 (Rluc8-bβ-arrestin-1-Sp1), sequence (P17870 whole entry): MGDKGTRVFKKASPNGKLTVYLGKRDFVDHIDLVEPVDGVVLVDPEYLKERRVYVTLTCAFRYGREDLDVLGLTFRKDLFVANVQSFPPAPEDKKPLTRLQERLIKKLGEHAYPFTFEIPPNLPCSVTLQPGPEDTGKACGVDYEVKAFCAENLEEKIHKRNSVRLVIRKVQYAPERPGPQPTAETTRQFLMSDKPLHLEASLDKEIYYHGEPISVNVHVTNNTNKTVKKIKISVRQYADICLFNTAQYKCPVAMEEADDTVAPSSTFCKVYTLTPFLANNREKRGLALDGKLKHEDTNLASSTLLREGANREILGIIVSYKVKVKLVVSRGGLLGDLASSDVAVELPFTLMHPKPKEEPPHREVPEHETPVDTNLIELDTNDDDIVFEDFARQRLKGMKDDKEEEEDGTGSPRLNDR
human β-arrestin-1 (Rluc8-hβ-arrestin-1-Sp1), sequence (P49407 whole entry): as the sequence (P17870 whole entry) above, with E35D, H368N, R414Q, D417N counted along it
human cannabinoid receptor 1 (pplss-3HA-hCB1) (human), sequence (P21554 whole entry): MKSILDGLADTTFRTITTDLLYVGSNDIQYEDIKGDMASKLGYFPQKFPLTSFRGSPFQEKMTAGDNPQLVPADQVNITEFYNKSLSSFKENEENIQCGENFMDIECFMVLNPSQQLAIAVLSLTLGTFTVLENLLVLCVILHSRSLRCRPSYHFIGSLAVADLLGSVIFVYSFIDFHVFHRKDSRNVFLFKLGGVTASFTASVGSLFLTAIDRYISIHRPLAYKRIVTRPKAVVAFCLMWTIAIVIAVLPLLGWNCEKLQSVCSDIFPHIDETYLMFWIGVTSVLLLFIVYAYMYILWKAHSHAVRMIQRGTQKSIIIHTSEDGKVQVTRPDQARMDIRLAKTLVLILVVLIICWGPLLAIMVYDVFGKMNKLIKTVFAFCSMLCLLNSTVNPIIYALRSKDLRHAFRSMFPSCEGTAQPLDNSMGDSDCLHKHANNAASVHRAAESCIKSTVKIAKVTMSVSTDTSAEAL
human cannabinoid receptor 2 (3HA-hCB2) (human), sequence (P34972 whole entry): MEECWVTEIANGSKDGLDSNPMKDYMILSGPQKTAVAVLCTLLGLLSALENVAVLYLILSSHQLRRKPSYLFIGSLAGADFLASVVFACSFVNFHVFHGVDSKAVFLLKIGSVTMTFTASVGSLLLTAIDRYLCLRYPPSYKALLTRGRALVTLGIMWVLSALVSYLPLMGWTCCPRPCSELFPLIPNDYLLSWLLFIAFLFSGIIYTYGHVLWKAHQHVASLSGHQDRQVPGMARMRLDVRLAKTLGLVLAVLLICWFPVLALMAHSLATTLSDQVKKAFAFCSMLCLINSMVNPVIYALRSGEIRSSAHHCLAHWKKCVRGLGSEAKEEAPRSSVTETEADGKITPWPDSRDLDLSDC
human D2 dopamine receptor (3HA-hD2R) (human), sequence (P14416 whole entry): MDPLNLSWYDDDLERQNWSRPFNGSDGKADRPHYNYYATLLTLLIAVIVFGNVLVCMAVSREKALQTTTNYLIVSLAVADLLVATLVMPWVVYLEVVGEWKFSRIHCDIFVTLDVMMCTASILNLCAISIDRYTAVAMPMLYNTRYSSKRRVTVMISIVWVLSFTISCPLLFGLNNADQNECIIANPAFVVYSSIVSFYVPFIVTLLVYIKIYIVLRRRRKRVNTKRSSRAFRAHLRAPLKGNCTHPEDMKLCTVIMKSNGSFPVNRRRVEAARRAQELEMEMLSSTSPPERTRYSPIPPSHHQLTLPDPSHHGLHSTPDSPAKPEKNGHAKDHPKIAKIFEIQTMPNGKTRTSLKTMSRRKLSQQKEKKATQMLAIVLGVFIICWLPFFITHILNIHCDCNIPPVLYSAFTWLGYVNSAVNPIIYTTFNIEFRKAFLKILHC

Substance: bovine β-arrestin-2 (Rluc8-bβ-arrestin-2-Sp1) (from UniProt P32120 1-420) (natural protein)
- Emax, arrestin translocation to the plasma membrane (BRET, AUC of 25 min); agonist AVP [1]: 194 ΔBRET.sec
- Emax, arrestin translocation to the plasma membrane (BRET, AUC of 25 min); agonist dopamine [2]: 40.6 ΔBRET.sec
- Emax, arrestin translocation to the plasma membrane (BRET, AUC of 25 min); agonist dopamine; GRK2 co-expressed [2]: 129 ΔBRET.sec
- Emax, arrestin translocation to the plasma membrane (BRET, AUC of 25 min); agonist 2-AG [3]: 116 ΔBRET.sec
- Emax, arrestin translocation to the plasma membrane (BRET, AUC of 25 min); agonist 2-AG; GRK2 co-expressed [3]: 91.7 ΔBRET.sec
- Emax, arrestin translocation to the plasma membrane (BRET, AUC of 25 min); agonist AEA [3]: 32.1 ΔBRET.sec
- Emax, arrestin translocation to the plasma membrane (BRET, AUC of 25 min); agonist CP55,940 [3]: 35.2 ΔBRET.sec
- Emax, arrestin translocation to the plasma membrane (BRET, AUC of 25 min); agonist CP55,940; GRK2 co-expressed [3]: 58.9 ΔBRET.sec
- Emax, arrestin translocation to the plasma membrane (BRET, AUC of 25 min); agonist WIN55,212-2 [3]: 72 ΔBRET.sec
- efficacy at 10 μM BAY (NA, not active; no curve could be fitted), arrestin translocation to the plasma membrane (BRET, AUC of 25 min) [3]: 2.4 ΔBRET.sec
- efficacy at 10 μM THC (NA, not active; no curve could be fitted), arrestin translocation to the plasma membrane (BRET, AUC of 25 min) [3]: 0.54 ΔBRET.sec
- Emax, arrestin translocation to the plasma membrane (BRET, AUC of 25 min); agonist 2-AG [4]: 45 ΔBRET.sec
- Emax, arrestin translocation to the plasma membrane (BRET, AUC of 25 min); agonist 2-AG; GRK2 co-expressed [4]: 75.7 ΔBRET.sec
- Emax, arrestin translocation to the plasma membrane (BRET, AUC of 25 min); agonist CP55,940 [4]: 45.4 ΔBRET.sec
- Emax, arrestin translocation to the plasma membrane (BRET, AUC of 25 min); agonist CP55,940; GRK2 co-expressed [4]: 70.9 ΔBRET.sec
- Emax, arrestin translocation to the plasma membrane (BRET, AUC of 25 min); agonist JWH-015 [4]: 26.7 ΔBRET.sec
- Emax, arrestin translocation to the plasma membrane (BRET, AUC of 25 min); agonist JWH-133 [4]: 49.7 ΔBRET.sec
- Emax, arrestin translocation to the plasma membrane (BRET, AUC of 25 min); agonist WIN55,212-2 [4]: 25.6 ΔBRET.sec
- efficacy at 10 μM THC (NA, not active; no curve could be fitted), arrestin translocation to the plasma membrane (BRET, AUC of 25 min) [4]: 2 ΔBRET.sec

Substance: human β-arrestin-1 (Rluc8-hβ-arrestin-1-Sp1) (from UniProt P49407 1-418) (natural protein)
- Response, arrestin translocation to the plasma membrane (BRET, AUC of 25 min); 1 μM CP55,940 (not significantly different from vehicle) [5]: 17.6 ΔBRET.sec
- Response, arrestin translocation to the plasma membrane (BRET, AUC of 25 min); 1 μM CP55,940; GRK2 co-expressed (significantly different from vehicle) [5]: 28.1 ΔBRET.sec
- Response, arrestin translocation to the plasma membrane (BRET, AUC of 25 min); 10 μM AEA (not significantly different from vehicle) [5]: 10 ΔBRET.sec
- Response, arrestin translocation to the plasma membrane (BRET, AUC of 25 min); 10 μM BAY (not significantly different from vehicle) [5]: 1.4 ΔBRET.sec
- Response, arrestin translocation to the plasma membrane (BRET, AUC of 25 min); 10 μM THC (not significantly different from vehicle) [5]: 16.2 ΔBRET.sec
- Response, arrestin translocation to the plasma membrane (BRET, AUC of 25 min); 10 μM WIN55,212-2 (significantly different from vehicle) [5]: 36.2 ΔBRET.sec
- Response, arrestin translocation to the plasma membrane (BRET, AUC of 25 min); 31.6 μM 2-AG (significantly different from vehicle) [5]: 51.8 ΔBRET.sec
- Response, arrestin translocation to the plasma membrane (BRET, AUC of 25 min); 31.6 μM 2-AG; GRK2 co-expressed (significantly different from vehicle) [5]: 53 ΔBRET.sec
- Response, arrestin translocation to the plasma membrane (BRET, AUC of 25 min); 1 μM CP55,940 (significantly different from vehicle) [6]: 20.5 ΔBRET.sec
- Response, arrestin translocation to the plasma membrane (BRET, AUC of 25 min); 1 μM CP55,940; GRK2 co-expressed (significantly different from vehicle) [6]: 22.7 ΔBRET.sec
- Response, arrestin translocation to the plasma membrane (BRET, AUC of 25 min); 10 μM JWH-015 (significantly different from vehicle) [6]: 31.2 ΔBRET.sec
- Response, arrestin translocation to the plasma membrane (BRET, AUC of 25 min); 10 μM JWH-133 (not significantly different from vehicle) [6]: 4.9 ΔBRET.sec
- Response, arrestin translocation to the plasma membrane (BRET, AUC of 25 min); 10 μM THC (significantly different from vehicle) [6]: 14.4 ΔBRET.sec
- Response, arrestin translocation to the plasma membrane (BRET, AUC of 25 min); 10 μM WIN55,212-2 (not significantly different from vehicle) [6]: 3.2 ΔBRET.sec
- Response, arrestin translocation to the plasma membrane (BRET, AUC of 25 min); 31.6 μM 2-AG (significantly different from vehicle) [6]: 14.7 ΔBRET.sec
- Response, arrestin translocation to the plasma membrane (BRET, AUC of 25 min); 31.6 μM 2-AG; GRK2 co-expressed (significantly different from vehicle) [6]: 17.2 ΔBRET.sec
- Emax, arrestin translocation to the plasma membrane (BRET, AUC of 25 min); agonist AVP [7]: 246 ΔBRET.sec
- Response, arrestin translocation to the plasma membrane (BRET, AUC of 25 min); 10 μM dopamine [8]: 17.9 ΔBRET.sec
- Response, arrestin translocation to the plasma membrane (BRET, AUC of 25 min); 10 μM dopamine; GRK2 co-expressed [8]: 86.1 ΔBRET.sec

Substance: bovine β-arrestin-1 (Rluc8-bβ-arrestin-1-Sp1) (from UniProt P17870 1-418) (natural protein)
- Emax, arrestin translocation to the plasma membrane (BRET, AUC of 25 min); agonist AVP [9]: 177 ΔBRET.sec
- Response, arrestin translocation to the plasma membrane (BRET, AUC of 25 min); 10 μM dopamine [10]: 23.4 ΔBRET.sec
- Response, arrestin translocation to the plasma membrane (BRET, AUC of 25 min); 10 μM dopamine; GRK2 co-expressed [10]: 95 ΔBRET.sec
- Response, arrestin translocation to the plasma membrane (BRET, AUC of 25 min); 1 μM CP55,940 (significantly different from vehicle) [11]: 20.8 ΔBRET.sec
- Response, arrestin translocation to the plasma membrane (BRET, AUC of 25 min); 1 μM CP55,940; GRK2 co-expressed (significantly different from vehicle) [11]: 44.4 ΔBRET.sec
- Response, arrestin translocation to the plasma membrane (BRET, AUC of 25 min); 10 μM AEA (no significant response) [11]: 6.9 ΔBRET.sec
- Response, arrestin translocation to the plasma membrane (BRET, AUC of 25 min); 10 μM BAY (no significant response) [11]: 0.7 ΔBRET.sec
- Response, arrestin translocation to the plasma membrane (BRET, AUC of 25 min); 10 μM THC (no significant response) [11]: 6.5 ΔBRET.sec
- Response, arrestin translocation to the plasma membrane (BRET, AUC of 25 min); 10 μM WIN55,212-2 (significantly different from vehicle) [11]: 48.5 ΔBRET.sec
- Response, arrestin translocation to the plasma membrane (BRET, AUC of 25 min); 31.6 μM 2-AG (significantly different from vehicle) [11]: 33.7 ΔBRET.sec
- Response, arrestin translocation to the plasma membrane (BRET, AUC of 25 min); 31.6 μM 2-AG; GRK2 co-expressed (significantly different from vehicle) [11]: 49.1 ΔBRET.sec
- Response, arrestin translocation to the plasma membrane (BRET, AUC of 25 min); 1 μM CP55,940 (significantly different from vehicle) [12]: 21.5 ΔBRET.sec
- Response, arrestin translocation to the plasma membrane (BRET, AUC of 25 min); 1 μM CP55,940; GRK2 co-expressed (significantly different from vehicle) [12]: 29 ΔBRET.sec
- Response, arrestin translocation to the plasma membrane (BRET, AUC of 25 min); 10 μM JWH-015 (not significantly different from vehicle) [12]: 14.2 ΔBRET.sec
- Response, arrestin translocation to the plasma membrane (BRET, AUC of 25 min); 10 μM JWH-133 (not significantly different from vehicle) [12]: 7.4 ΔBRET.sec
- Response, arrestin translocation to the plasma membrane (BRET, AUC of 25 min); 10 μM THC (not significantly different from vehicle) [12]: 10.8 ΔBRET.sec
- Response, arrestin translocation to the plasma membrane (BRET, AUC of 25 min); 10 μM WIN55,212-2 (significantly different from vehicle) [12]: 22.2 ΔBRET.sec
- Response, arrestin translocation to the plasma membrane (BRET, AUC of 25 min); 31.6 μM 2-AG (not significantly different from vehicle) [12]: 14.2 ΔBRET.sec
- Response, arrestin translocation to the plasma membrane (BRET, AUC of 25 min); 31.6 μM 2-AG; GRK2 co-expressed (significantly different from vehicle) [12]: 17.5 ΔBRET.sec

Reference: paper PMC6468047, “Cannabinoid CB1 and CB2 Receptor-Mediated Arrestin Translocation: Species, Subtype, and Agonist-Dependence” (Frontiers in Pharmacology, 2019)
